# Assay results as given in PMC2920134 (The Journal of neuroscience : the official journal of the …, 2010).
# Where two headings read alike, the source gives them in different places.
# B1: GST-tagged Arr1 [AA 1-403] (natural protein, mouse, UniProt P20443 1-403, looked up)
# chain: MAACGKTNKSHVIFKKVSRDKSVTIYLGKRDYVDHVSQVEPVDGVVLVDPELVKGKKVYVTLTCAFRYGQEDIDVMGLTFRRDLYFSRVQVYPPVGAMSVLTQLQESLLKKLGDNTYPFLLTFPDYLPCSVMLQPAPQDVGKSCGVDFEVKAFASDITDPEEDKIPKKSSVRLLIRKVQHAPPEMGPQPSAEASWQFFMSDKPLNLSVSLSKEIYFHGEPIPVTVTVTNNTDKVVKKIKVSVEQIANVVLYSSDYYVKPVASEETQEKVQPNSTLTKTLVLVPLLANNRERRGIALDGKIKHEDTNLASSTIIKEGIDRTVMGILVSYHIKVKLTVSGFLGELTSSEVATEVPFRLMHPQPEDPAKESVQDENLVFEEFARQNLKDTGENTEGKKDEDAGQDE
# B2: GST-tagged NSF (AA 1-250) (domain or fragment, mouse, UniProt P46460 1-250, looked up)
# chain: MAGRTMQAARCPTDELSLSNCAVVNEKDFQSGQHVMVRTSPNHKYIFTLRTHPSVVPGCIAFSLPQRKWAGLSIGQDIEVALYSFDKAKQCIGTMTIEIDFLQKKNIDSNPYDTDKMAAEFIQQFNNQAFSVGQQLVFSFNDKLFGLLVKDIEAMDPSILKGEPASGKRQKIEVGLVVGNSQVAFEKAENSSLNLIGKAKTKENRQSIINPDWNFEKMGIGGLDKEFSDIFRRAFASRVFPPEIVEQMGC
# B3: GST-tagged truncated Arr1 [AA 1-370] (domain or fragment, mouse, UniProt P20443 1-370, looked up)
# chain: MAACGKTNKSHVIFKKVSRDKSVTIYLGKRDYVDHVSQVEPVDGVVLVDPELVKGKKVYVTLTCAFRYGQEDIDVMGLTFRRDLYFSRVQVYPPVGAMSVLTQLQESLLKKLGDNTYPFLLTFPDYLPCSVMLQPAPQDVGKSCGVDFEVKAFASDITDPEEDKIPKKSSVRLLIRKVQHAPPEMGPQPSAEASWQFFMSDKPLNLSVSLSKEIYFHGEPIPVTVTVTNNTDKVVKKIKVSVEQIANVVLYSSDYYVKPVASEETQEKVQPNSTLTKTLVLVPLLANNRERRGIALDGKIKHEDTNLASSTIIKEGIDRTVMGILVSYHIKVKLTVSGFLGELTSSEVATEVPFRLMHPQPEDPAKESVQ
# B4: GST-tagged truncated Arr1 [AA 1-191] (domain or fragment, mouse, UniProt P20443 1-191, looked up)
# chain: MAACGKTNKSHVIFKKVSRDKSVTIYLGKRDYVDHVSQVEPVDGVVLVDPELVKGKKVYVTLTCAFRYGQEDIDVMGLTFRRDLYFSRVQVYPPVGAMSVLTQLQESLLKKLGDNTYPFLLTFPDYLPCSVMLQPAPQDVGKSCGVDFEVKAFASDITDPEEDKIPKKSSVRLLIRKVQHAPPEMGPQPSA
# Experiments:
# Experiment in all cases: pull-down
# [1] = molecular target: His6-tagged NSF truncated segment (AA 197-744) (mouse, UniProt P46460 197-744)
# [2] = molecular target: T1, His6-tagged NSF (AA 1-744) (mouse, UniProt P46460 1-744)
# [3] = molecular target: His6-tagged Arr1 (mouse, UniProt P20443 1-403)
# [4] = molecular target: T1, His6-tagged NSF (AA 1-744); remark: listed apart in the source
# Chain of His6-tagged NSF truncated segment (AA 197-744) (P46460 197-744): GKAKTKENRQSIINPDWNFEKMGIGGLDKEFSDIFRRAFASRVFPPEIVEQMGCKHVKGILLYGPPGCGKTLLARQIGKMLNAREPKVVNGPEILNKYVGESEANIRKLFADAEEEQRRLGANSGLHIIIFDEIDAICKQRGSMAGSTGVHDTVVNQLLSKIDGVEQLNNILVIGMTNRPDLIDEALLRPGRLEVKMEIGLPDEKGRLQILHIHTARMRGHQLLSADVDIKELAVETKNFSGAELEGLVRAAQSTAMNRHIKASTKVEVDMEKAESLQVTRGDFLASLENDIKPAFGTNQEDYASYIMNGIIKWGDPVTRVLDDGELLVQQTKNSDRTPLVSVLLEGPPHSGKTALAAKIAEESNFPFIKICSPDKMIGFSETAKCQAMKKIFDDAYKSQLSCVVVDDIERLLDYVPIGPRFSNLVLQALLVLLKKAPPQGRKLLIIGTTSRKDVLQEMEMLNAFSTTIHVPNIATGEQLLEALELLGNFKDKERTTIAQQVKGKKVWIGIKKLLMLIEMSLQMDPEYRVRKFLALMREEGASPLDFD
binder,measurement,setting,value
B1,binding result,[1],binds
same,binding result,[2],binds
B2,binding result,[3],binds
B3,binding result,[4],binds
B4,binding result,[4],binds
